Results taken from patent US20150246949A1, “Desmoglein 2 (DSG2) Binding Proteins and Uses Therefor” (UNIVERSITY OF WASHINGTON THROUGH ITS CENTER FOR …, priority 2012, published 2015).

T1: human DSG2 on cells (HeLa cells; polarized T84 cells) (human, UniProt Q14126 50-1118)
T1 sequence: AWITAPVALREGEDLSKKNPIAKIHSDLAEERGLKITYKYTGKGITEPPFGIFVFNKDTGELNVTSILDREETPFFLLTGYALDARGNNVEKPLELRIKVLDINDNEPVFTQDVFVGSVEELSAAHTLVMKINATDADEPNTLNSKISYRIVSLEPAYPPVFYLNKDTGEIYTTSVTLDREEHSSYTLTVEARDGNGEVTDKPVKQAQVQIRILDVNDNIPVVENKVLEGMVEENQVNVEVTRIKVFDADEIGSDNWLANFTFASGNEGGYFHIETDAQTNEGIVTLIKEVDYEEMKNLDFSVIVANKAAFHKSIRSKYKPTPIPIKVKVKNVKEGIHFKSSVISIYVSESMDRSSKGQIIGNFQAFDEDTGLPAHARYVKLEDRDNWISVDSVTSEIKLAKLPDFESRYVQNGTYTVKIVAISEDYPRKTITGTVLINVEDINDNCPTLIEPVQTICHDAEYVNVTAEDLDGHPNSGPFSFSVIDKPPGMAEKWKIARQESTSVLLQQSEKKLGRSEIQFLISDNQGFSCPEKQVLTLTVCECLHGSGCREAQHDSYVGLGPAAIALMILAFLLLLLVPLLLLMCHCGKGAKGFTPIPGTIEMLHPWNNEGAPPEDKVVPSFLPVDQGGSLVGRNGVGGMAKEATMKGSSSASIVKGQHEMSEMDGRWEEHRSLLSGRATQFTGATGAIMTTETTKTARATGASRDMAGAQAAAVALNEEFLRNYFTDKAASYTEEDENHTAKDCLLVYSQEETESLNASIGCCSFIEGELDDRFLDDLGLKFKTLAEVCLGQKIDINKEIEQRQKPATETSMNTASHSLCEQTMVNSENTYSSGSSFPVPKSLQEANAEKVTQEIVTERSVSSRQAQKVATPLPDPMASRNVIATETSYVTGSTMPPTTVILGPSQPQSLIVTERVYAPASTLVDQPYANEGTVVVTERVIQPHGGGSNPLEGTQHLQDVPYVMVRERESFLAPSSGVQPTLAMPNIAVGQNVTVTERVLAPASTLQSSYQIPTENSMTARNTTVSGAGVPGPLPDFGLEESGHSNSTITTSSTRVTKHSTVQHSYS

T2: Recombinant human DSG2 protein (Leinco Technologies) (human, UniProt Q14126 50-609)
T2 construct: also called soluble DSG2; soluble recombinant DSG2
T2 sequence: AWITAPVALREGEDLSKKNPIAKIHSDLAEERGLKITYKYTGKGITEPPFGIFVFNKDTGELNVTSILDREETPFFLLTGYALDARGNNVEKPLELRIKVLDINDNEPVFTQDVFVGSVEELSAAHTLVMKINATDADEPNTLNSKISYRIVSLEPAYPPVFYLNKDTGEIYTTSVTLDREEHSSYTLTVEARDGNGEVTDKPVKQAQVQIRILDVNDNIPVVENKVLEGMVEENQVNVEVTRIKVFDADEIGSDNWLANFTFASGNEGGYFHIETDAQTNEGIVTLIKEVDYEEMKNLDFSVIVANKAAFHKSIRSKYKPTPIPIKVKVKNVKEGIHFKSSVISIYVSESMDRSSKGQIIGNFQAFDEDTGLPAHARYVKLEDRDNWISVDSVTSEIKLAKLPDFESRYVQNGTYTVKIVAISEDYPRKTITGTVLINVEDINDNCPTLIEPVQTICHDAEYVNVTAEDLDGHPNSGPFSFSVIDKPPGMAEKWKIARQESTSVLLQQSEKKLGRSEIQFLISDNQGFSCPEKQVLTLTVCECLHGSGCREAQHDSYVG


Legend:
[1] = molecular target: T1, human DSG2 on cells (HeLa cells; …); experiment: cell-based or functional assay
[2] = molecular target: T2, Recombinant human DSG2 protein (Leinco …); experiment: Western blot of dimeric knob (trimer band), soluble recombinant DSG2 as probe, anti-DSG2 mAb
[3] = molecular target: T1, human DSG2 on cells (HeLa cells; …); experiment: attachment of 3H-labelled Ad3 virus (competitor) to HeLa cells pre-incubated with the dimeric knob
[4] = molecular target: T2, Recombinant human DSG2 protein (Leinco …); experiment: SPR (BIAcore 3000), DSG2 immobilised on the sensor chip, knobs injected at 2.5 to 10 µg/ml, BIAeval

Binder	Inhibition of infection in the presence of dimeric knob (JO-1 = 100%) [1]	Western blot residual DSG2 binding (wtAd3 knob = 100%) [2]	Inhibition of attachment in the presence of dimeric knob (JO-1 = 100%) [3]	Kd [4]	koff [4]	kon [4]
dimeric Ad3 fiber knob mutant D261N, L296R (designed binder, also called D261, L296R; combination of D261N and L296R) MKVSALKEKVSALKEKVSALKEKVSALKEKVSALKEGSGGGSGGGSGGGSNSIALKNNTLWTGPKPEANCIIEYGKQNPDSKLTLILVKNGGIVNGYVTLMGASDYVNTLFKNKNVSINVELYFDATGHILPDSSSLKTDLELKYKQTADFSARGFMPSTTAYPFVLPNAGTHNENYIFGQCYYKASNGALFPLEVTVMLNKRLPDSRTSYVMTFLWSLNAGRAPETTQATLITSPFTFSYIREDD	1.5%	7%	20.1%	–	–	–
dimeric Ad3 fiber knob mutant V189G (designed binder) MKVSALKEKVSALKEKVSALKEKVSALKEKVSALKEGSGGGSGGGSGGGSNSIALKNNTLWTGPKPEANCIIEYGKQNPDSKLTLILVKNGGIVNGYVTLMGASDYVNTLFKNKNGSINVELYFDATGHILPDSSSLKTDLELKYKQTADFSARGFMPSTTAYPFVLPNAGTHNENYIFGQCYYKASDGALFPLEVTVMLNKRLPDSRTSYVMTFLWSLNAGLAPETTQATLITSPFTFSYIREDD	54%	14%	81%	–	–	–
dimeric Ad3 fiber knob mutant N186D, D261N, L296R (designed binder, also called mutant with mutations in all three areas (N185, D261, L296)) MKVSALKEKVSALKEKVSALKEKVSALKEKVSALKEGSGGGSGGGSGGGSNSIALKNNTLWTGPKPEANCIIEYGKQNPDSKLTLILVKNGGIVNGYVTLMGASDYVNTLFKDKNVSINVELYFDATGHILPDSSSLKTDLELKYKQTADFSARGFMPSTTAYPFVLPNAGTHNENYIFGQCYYKASNGALFPLEVTVMLNKRLPDSRTSYVMTFLWSLNAGRAPETTQATLITSPFTFSYIREDD	–	0%	–	–	–	–
dimeric Ad3 fiber knob mutant L296R (designed binder) MKVSALKEKVSALKEKVSALKEKVSALKEKVSALKEGSGGGSGGGSGGGSNSIALKNNTLWTGPKPEANCIIEYGKQNPDSKLTLILVKNGGIVNGYVTLMGASDYVNTLFKNKNVSINVELYFDATGHILPDSSSLKTDLELKYKQTADFSARGFMPSTTAYPFVLPNAGTHNENYIFGQCYYKASDGALFPLEVTVMLNKRLPDSRTSYVMTFLWSLNAGRAPETTQATLITSPFTFSYIREDD	5.1%	3.6%	73.7%	–	–	–
dimeric Ad3 fiber knob mutant S190P (designed binder, also called 5190P [sic]) MKVSALKEKVSALKEKVSALKEKVSALKEKVSALKEGSGGGSGGGSGGGSNSIALKNNTLWTGPKPEANCIIEYGKQNPDSKLTLILVKNGGIVNGYVTLMGASDYVNTLFKNKNVPINVELYFDATGHILPDSSSLKTDLELKYKQTADFSARGFMPSTTAYPFVLPNAGTHNENYIFGQCYYKASDGALFPLEVTVMLNKRLPDSRTSYVMTFLWSLNAGLAPETTQATLITSPFTFSYIREDD	30.9%	7.1%	73.4%	–	–	–
dimeric Ad3 fiber knob mutant N186D, D261N (designed binder, also called combination of N186D and D261N) MKVSALKEKVSALKEKVSALKEKVSALKEKVSALKEGSGGGSGGGSGGGSNSIALKNNTLWTGPKPEANCIIEYGKQNPDSKLTLILVKNGGIVNGYVTLMGASDYVNTLFKDKNVSINVELYFDATGHILPDSSSLKTDLELKYKQTADFSARGFMPSTTAYPFVLPNAGTHNENYIFGQCYYKASNGALFPLEVTVMLNKRLPDSRTSYVMTFLWSLNAGLAPETTQATLITSPFTFSYIREDD	5.2%	7%	23.5%	–	–	–
dimeric Ad3 fiber knob mutant E299V (designed binder) MKVSALKEKVSALKEKVSALKEKVSALKEKVSALKEGSGGGSGGGSGGGSNSIALKNNTLWTGPKPEANCIIEYGKQNPDSKLTLILVKNGGIVNGYVTLMGASDYVNTLFKNKNVSINVELYFDATGHILPDSSSLKTDLELKYKQTADFSARGFMPSTTAYPFVLPNAGTHNENYIFGQCYYKASDGALFPLEVTVMLNKRLPDSRTSYVMTFLWSLNAGLAPVTTQATLITSPFTFSYIREDD	50.7%	20%	97.3%	–	–	–
dimeric Ad3 fiber knob mutant N186D (designed binder) MKVSALKEKVSALKEKVSALKEKVSALKEKVSALKEGSGGGSGGGSGGGSNSIALKNNTLWTGPKPEANCIIEYGKQNPDSKLTLILVKNGGIVNGYVTLMGASDYVNTLFKDKNVSINVELYFDATGHILPDSSSLKTDLELKYKQTADFSARGFMPSTTAYPFVLPNAGTHNENYIFGQCYYKASDGALFPLEVTVMLNKRLPDSRTSYVMTFLWSLNAGLAPETTQATLITSPFTFSYIREDD	32.7%	5.3%	56.5%	–	–	–
Ad3 fiber knob mutant E248G+K258E without dimerization domain (ligand, range 108-319; not shown: N-terminal 6-His tag of pQE30 and linker) NKLCSKLGNGLTFDSSNSIALKNNTLWTGPKPEANCIIEYGKQNPDSKLTLILVKNGGIVNGYVTLMGASDYVNTLFKNKNVSINVELYFDATGHILPDSSSLKTDLELKYKQTADFSARGFMPSTTAYPFVLPNAGTHNGNYIFGQCYYEASDGALFPLEVTVMLNKRLPDSRTSYVMTFLWSLNAGLAPETTQATLITSPFTFSYIREDD	–	–	–	49.4 nM	0.00147 s⁻¹	29800 M⁻¹ s⁻¹
Ad3 fiber knob mutant K217E+F224S without dimerization domain (ligand, range 108-319; also called K217E/F224S mutant (non-dimerized form); not shown: N-terminal 6-His tag of pQE30 and linker) NKLCSKLGNGLTFDSSNSIALKNNTLWTGPKPEANCIIEYGKQNPDSKLTLILVKNGGIVNGYVTLMGASDYVNTLFKNKNVSINVELYFDATGHILPDSSSLKTDLELEYKQTADSSARGFMPSTTAYPFVLPNAGTHNENYIFGQCYYKASDGALFPLEVTVMLNKRLPDSRTSYVMTFLWSLNAGLAPETTQATLITSPFTFSYIREDD	–	–	–	53.9 nM	0.00317 s⁻¹	58800 M⁻¹ s⁻¹
Ad3 fiber knob mutant N293S without dimerization domain (ligand, range 108-319; also called N293S/noDD; not shown: N-terminal 6-His tag of pQE30 and linker) NKLCSKLGNGLTFDSSNSIALKNNTLWTGPKPEANCIIEYGKQNPDSKLTLILVKNGGIVNGYVTLMGASDYVNTLFKNKNVSINVELYFDATGHILPDSSSLKTDLELKYKQTADFSARGFMPSTTAYPFVLPNAGTHNENYIFGQCYYKASDGALFPLEVTVMLNKRLPDSRTSYVMTFLWSLSAGLAPETTQATLITSPFTFSYIREDD	–	–	–	73.2 nM	8.7e-05 s⁻¹	1190 M⁻¹ s⁻¹
Ad3 fiber knob mutant F224L without dimerization domain (ligand, range 108-319; not shown: N-terminal 6-His tag of pQE30 and linker) NKLCSKLGNGLTFDSSNSIALKNNTLWTGPKPEANCIIEYGKQNPDSKLTLILVKNGGIVNGYVTLMGASDYVNTLFKNKNVSINVELYFDATGHILPDSSSLKTDLELKYKQTADLSARGFMPSTTAYPFVLPNAGTHNENYIFGQCYYKASDGALFPLEVTVMLNKRLPDSRTSYVMTFLWSLNAGLAPETTQATLITSPFTFSYIREDD	–	–	–	78.7 nM	0.00269 s⁻¹	34200 M⁻¹ s⁻¹
